Assay results: patent US20220363770A1 (Amgen, published 2022)
Substitutions are numbered along the chain they refer to.

T1: human PAC1 receptor (human, UniProt P41586 24-468)
T1 sequence: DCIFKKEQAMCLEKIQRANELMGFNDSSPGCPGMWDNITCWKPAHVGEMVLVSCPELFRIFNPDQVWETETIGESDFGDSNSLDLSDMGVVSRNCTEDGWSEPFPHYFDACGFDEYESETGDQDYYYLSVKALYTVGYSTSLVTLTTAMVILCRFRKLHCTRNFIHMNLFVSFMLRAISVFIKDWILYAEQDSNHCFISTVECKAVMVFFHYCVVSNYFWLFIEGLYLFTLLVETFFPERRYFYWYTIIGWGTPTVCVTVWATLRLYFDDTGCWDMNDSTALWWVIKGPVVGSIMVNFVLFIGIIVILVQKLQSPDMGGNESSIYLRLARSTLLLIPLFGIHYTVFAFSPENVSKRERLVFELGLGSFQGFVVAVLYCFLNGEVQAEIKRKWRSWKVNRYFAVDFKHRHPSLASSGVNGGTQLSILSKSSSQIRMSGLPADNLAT

B1: anti-CGRP receptor variant 12, yeast-displayed Fab (Fab, V domains shown)
VH: QVQLVESGGGVVQPGRSLRLSCAASGFTFSSFGMHWVRQAPGKGLEWVAVISFDGSIKYSVDSVKGRFTISRDNSKNTLFLQMNSLRAEDTAVYYCARDRLNYYESSGYYHYKYYGMAVWGQGTTVTVSS
VL: QSVLTQPPSVSAAPGQKVTISCSGSRSNIGRYSVSWYQQLPGTAPKLLIYDNRYRAQGIPDRFSGSKSGTSATLGITGLQTGDEADYYCGTWDWATTSVVFGGGTKLTVLG
notes: also called Variant Ab ID 12
B2: iPS:454587 (bispecific antibody, human IgG1, kappa, lambda, N297G)
light 1: QSVLTQPPSVSAAPGQKVTISCSGSYSNIGRYSVSWYQQLPGTAPKLLIYDNNKRPSGIPDRFSGSKSGTSATLGITGLQTGDEADYYCGTWDSRLSAVVFGGGTKLTVLGQPKAAPSVTLFPPSSEELQANKATLVCLISDFYPGAVTVAWKADSSPVKAGVETTTPSKQSNNKYAAKSYLSLTPEQWKSHRSYSCQVTHEGSTVEKTVAPTECS
heavy 1: QVQLVESGGGVVQPGRSLRLSCAASGFTFSSFGMHWVRQAPGKGLEWVAVISFDGSIKYSVDSVKGRFTISRDNSKNTLFLQMNSLRAEDTAVYYCARDRLNYYESSGYYHYKYYGMAVWGQGTTVTVSSASTKGPSVFPLAPSSKSTSGGTAALGCLVKDYFPEPVTVSWNSGALTSGVHTFPAVLQSSGLYSLESVVTVPSSSLGTQTYICNVNHKPSNTKVDKKVEPKSCDKTHTCPPCPAPELLGGPSVFLFPPKPKDTLMISRTPEVTCVVVDVSHEDPEVKFNWYVDGVEVHNAKTKPCEEQYGSTYRCVSVLTVLHQDWLNGKEYKCKVSNKALPAPIEKTISKAKGQPREPQVYTLPPSRKEMTKNQVSLTCLVKGFYPSDIAVEWESNGQPENNYKTTPPVLKSDGSFFLYSKLTVDKSRWQQGNVFSCSVMHEALHNHYTQKSLSLSPGK
light 2: EIVLTQSPATLSLSPGERATLSCRASKSVGWSLHWYQQKPGQAPRLLIKYASQSLSGIPARFSGSGSGTDFTLTISSLEPEDFAVYYCHQSSRLPFTFGPGTKVDIKRTVAAPSVFIFPPSDEQLKSGTASVVCLLNNFYPREAKVQWKVDNALQSGNSQESVTEQDSKDSTYSLESTLTLSKADYEKHKVYACEVTHQGLSSPVTKSFNRGEC
heavy 2: not shown
B3: iPS:454737 (bispecific antibody, human IgG1, kappa, lambda, N297G)
light 1: B2 light 1
heavy 1: B2 heavy 1 with E370K
light 2: B2 light 2 with W31Q
heavy 2: not shown
B4: iPS:454739 (bispecific antibody, human IgG1, kappa, lambda, N297G)
light 1: B2 light 1
heavy 1: B2 heavy 1 with E370K
light 2: B2 light 2
heavy 2: not shown
B5: iPS:454729 (bispecific antibody, human IgG1, kappa, lambda, N297G)
light 1: B2 light 1
heavy 1: B2 heavy 1 with E370K
light 2: B2 light 2 with W31Q
heavy 2: not shown
B6: iPS:454731 (bispecific antibody, human IgG1, kappa, lambda, N297G)
light 1: B2 light 1
heavy 1: B2 heavy 1 with E370K
light 2: B2 light 2 with S28A, G30W, W31H, S32N, R93M
heavy 2: not shown
B7: iPS:454735 (bispecific antibody, human IgG1, kappa, lambda, N297G)
light 1: B2 light 1
heavy 1: B2 heavy 1 with E370K
light 2: B2 light 2 with W31Q
heavy 2: not shown
B8: iPS:454733 (bispecific antibody, human IgG1, kappa, lambda, N297G)
light 1: B2 light 1
heavy 1: B2 heavy 1 with E370K
light 2: B2 light 2 with K27R, W31L, S32A, R93F
heavy 2: not shown
B9: anti-CGRP receptor variant antibody 10, bivalent monoclonal antibody (antibody, human IgG1, lambda, N297G, V domains shown)
VH: B1 VH with T28F, S30G, F32Y, D54A, S56E, K58E, Y59H, S60Y
VL: QSVLTQPPSVSAAPGQKVTISCSGSSSNIGNNYVSWYQQLPGTAPKLLIYDNNKRPSGIPDRFSGSKSGTSATLGITGLQTGDEADYYCGTWDSRLSAVVFGGGTKLTVLG
B10: anti-CGRP receptor variant antibody 04, bivalent monoclonal antibody (antibody, human IgG1, lambda, N297G, V domains shown)
VH: B1 VH with E105R, S107F, H111G, K113H
VL: B9 VL
B11: anti-CGRP receptor variant antibody 06, bivalent monoclonal antibody (antibody, human IgG1, lambda, N297G, V domains shown)
VH: B1 VH
VL: B9 VL with S26Y, N31R, N32K, Y33S
B12: anti-CGRP receptor variant antibody 08, bivalent monoclonal antibody (antibody, human IgG1, lambda, N297G, V domains shown)
VH: B1 VH
VL: B9 VL with S26Y, N31W, N32W, Y33P
B13: anti-CGRP receptor variant antibody 01, bivalent monoclonal antibody (antibody, human IgG1, lambda, N297G, V domains shown)
VH: B1 VH
VL: B9 VL with S26Y, N31R, N32Y, Y33S
B14: 4E4.2 parental antibody, bivalent monoclonal antibody (antibody, human IgG1, lambda, N297G, V domains shown)
VH: B1 VH
VL: B9 VL
B15: anti-CGRP receptor variant antibody 05, bivalent monoclonal antibody (antibody, human IgG1, lambda, N297G, V domains shown)
VH: B1 VH
VL: B1 VL with R26F, Y32S, S33T, Y54W, Q57G, W94Y, A95Q, T96W, T97K, S98A
B16: anti-CGRP receptor variant antibody 02, bivalent monoclonal antibody (antibody, human IgG1, lambda, N297G, V domains shown)
VH: B1 VH
VL: B9 VL with S26R, N31I, N32K, Y33A
B17: anti-CGRP receptor variant antibody 07, bivalent monoclonal antibody (antibody, human IgG1, lambda, N297G, V domains shown)
VH: B1 VH with T28Y, S30M, S31T, F32Y
VL: B9 VL
B18: anti-CGRP receptor variant antibody 09, bivalent monoclonal antibody (antibody, human IgG1, lambda, N297G, V domains shown)
VH: B1 VH with D54A, S56E, K58D, S60Y
VL: B9 VL

molecular target: T2, human CGRP receptor extracellular domain (ECD) (human, UniProt Q16602 23-138; O60894 27-117); assay: yeast-displayed Fab, FACS, 1 nM human CGRP receptor ECD
T2 construct: also called CGRP receptor ECD; human CGRP receptor ECD
T2 sequence (Q16602 23-138 limits assumed, chain 1 of 2): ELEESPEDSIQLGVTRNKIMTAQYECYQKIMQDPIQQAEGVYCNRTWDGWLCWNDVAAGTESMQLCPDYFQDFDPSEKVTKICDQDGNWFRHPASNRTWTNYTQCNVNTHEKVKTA
T2 sequence (O60894 27-117 limits assumed, chain 2 of 2): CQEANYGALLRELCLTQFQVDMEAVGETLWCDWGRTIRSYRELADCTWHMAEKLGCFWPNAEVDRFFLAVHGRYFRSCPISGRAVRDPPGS

Row | Mutant vs. 4E4.2 Parent B/D Ratio [fold] | Normalized Binding Signal/Display Signal (B/D) [ratio] | Binder
1 | 2.8 | 0.35 | B1

molecular target: T2, human CGRP receptor extracellular …; assay: yeast-displayed Fab, FACS, 10 nM human CGRP receptor ECD

Row | Mutant vs. 4E4.2 Parent B/D Ratio [fold] | Normalized Binding Signal/Display Signal (B/D) [ratio] | Binder
2 | 9.7 | 1.5 | B1

molecular target: human CGRP receptor (human, UniProt Q16602 23-461; O60894 27-148); assay: cell-based or functional assay
Sequence (Q16602 23-461 limits assumed, chain 1 of 2): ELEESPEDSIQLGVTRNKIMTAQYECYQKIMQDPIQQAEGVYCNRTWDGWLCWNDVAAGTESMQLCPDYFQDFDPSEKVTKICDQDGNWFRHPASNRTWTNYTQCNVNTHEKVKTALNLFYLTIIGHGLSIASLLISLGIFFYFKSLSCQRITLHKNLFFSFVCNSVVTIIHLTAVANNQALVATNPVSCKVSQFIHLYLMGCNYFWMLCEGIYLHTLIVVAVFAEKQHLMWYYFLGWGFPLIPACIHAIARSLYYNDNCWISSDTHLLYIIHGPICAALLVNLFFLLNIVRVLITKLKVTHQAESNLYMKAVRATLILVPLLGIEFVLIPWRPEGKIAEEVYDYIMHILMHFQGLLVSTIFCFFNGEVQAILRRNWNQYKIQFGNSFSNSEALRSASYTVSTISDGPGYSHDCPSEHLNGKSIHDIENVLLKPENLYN
Sequence (O60894 27-148 limits assumed, chain 2 of 2): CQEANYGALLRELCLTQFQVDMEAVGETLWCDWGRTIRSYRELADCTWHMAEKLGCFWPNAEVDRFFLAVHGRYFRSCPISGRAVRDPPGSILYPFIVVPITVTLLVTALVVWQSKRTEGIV

Row | Fold-improvement over 4E4 Ab [fold] | IC50 [nM] | Binder
3 | 0.9 | 0.58 | B2
4 | 0.9 | 0.55 | B3
5 | 0.9 | 0.57 | B4
6 | 1 | 0.53 | B5
7 | 1 | 0.52 | B6
8 | 1 | 0.52 | B7
9 | 0.9 | 0.55 | B8

molecular target: T1, human PAC1 receptor; assay: cell-based or functional assay

Row | Fold-improvement over 29G4v22 Ab [fold] | IC50 [nM] | Binder
10 | 1.3 | 4.36 | B2
11 | 2.8 | 2.38 | B3
12 | 3.5 | 1.92 | B4
13 | 6.9 | 0.97 | B5
14 | 1.8 | 3.76 | B6
15 | 3.4 | 1.95 | B7
16 | 3 | 2.21 | B8

molecular target: T3, cynomolgus monkey CGRP receptor (cynomolgus monkey, UniProt A0A2K5VQ71 34-472); assay: yeast-displayed Fab, FACS, detergent-solubilized lysate of cynomolgus CGRP receptor/HEK cells vs blank cells
T3 construct: whole, on cells; Presented as detergent-solubilized lysate of HEK cells expressing the cynomolgus receptor; also called Cyno CGRP Receptor; Cynomolgus Monkey CGRP Receptor/HEK detergent-solubilized cell lysate
T3 sequence (A0A2K5VQ71 entry or part of it): as the sequence (Q16602 23-461 limits assumed, chain 1 of 2) above, with D55N, L431V counted along it

Row | Cyno CGRP Receptor/Blank Cells Specific Binding [ratio] | Mutant vs. 4E4.2 Parent Specific Binding Ratio [fold] | Binder
17 | 10.3 | 5.4 | B1

molecular target: human CGRP receptor (human CRLR / human RAMP1 heterodimer) (human, UniProt Q16602 23-461; O60894 27-148); assay: cell-based or functional assay
Sequence (Q16602 23-461 limits assumed, chain 1 of 2): as the sequence (Q16602 23-461 limits assumed, chain 1 of 2) above
Sequence (O60894 27-148 limits assumed, chain 2 of 2): as the sequence (O60894 27-148 limits assumed, chain 2 of 2) above

Row | Average IC50 (nM), cell-based cAMP assay, SK-N-MC cells, 3 nM human α-CGRP [nM] | Fold-improvement over 4E4 Ab (IC50, cAMP assay) [fold] | Run 1 IC50 (nM), cell-based cAMP assay, SK-N-MC cells, 3 nM human α-CGRP [nM] | Run 2 IC50 (nM), cell-based cAMP assay, SK-N-MC cells, 3 nM human α-CGRP [nM] | Binder
18 | 0.56 | 1 | 0.43 | 0.68 | B9
19 | 0.17 | 3.1 | 0.14 | 0.21 | B10
20 | 0.15 | 3.7 | 0.14 | 0.15 | B11
21 | 0.3 | 1.8 | 0.28 | 0.31 | B12
22 | 0.14 | 3.9 | 0.13 | 0.14 | B13
23 | 0.45 | 1.2 | 0.34 | 0.56 | B14
24 | 0.2 | 2.7 | 0.15 | 0.25 | B15
25 | 0.12 | 4.6 | 0.1 | 0.13 | B16
26 | 0.29 | 1.9 | 0.18 | 0.39 | B17
27 | 0.86 | 0.6 | 0.73 | 1 | B18
